Reference: US20130177572A1 (X BODY, published 2013)

How the values were obtained:
[1] = biological target: T1, mouse PDGFR-hIgG1-Fc chimeric fusion protein (mouse; human, UniProt P05622 32-530, limits assumed); test: SPR (Biacore T100), mouse PDGFR-hIgG1-Fc captured by anti-hIgG1 Fc, 1:1 fit
T1 construct: also called mouse PDGFRβ; mouse PDFGR; not shown: human IgG1 Fc
T1 sequence (looked up): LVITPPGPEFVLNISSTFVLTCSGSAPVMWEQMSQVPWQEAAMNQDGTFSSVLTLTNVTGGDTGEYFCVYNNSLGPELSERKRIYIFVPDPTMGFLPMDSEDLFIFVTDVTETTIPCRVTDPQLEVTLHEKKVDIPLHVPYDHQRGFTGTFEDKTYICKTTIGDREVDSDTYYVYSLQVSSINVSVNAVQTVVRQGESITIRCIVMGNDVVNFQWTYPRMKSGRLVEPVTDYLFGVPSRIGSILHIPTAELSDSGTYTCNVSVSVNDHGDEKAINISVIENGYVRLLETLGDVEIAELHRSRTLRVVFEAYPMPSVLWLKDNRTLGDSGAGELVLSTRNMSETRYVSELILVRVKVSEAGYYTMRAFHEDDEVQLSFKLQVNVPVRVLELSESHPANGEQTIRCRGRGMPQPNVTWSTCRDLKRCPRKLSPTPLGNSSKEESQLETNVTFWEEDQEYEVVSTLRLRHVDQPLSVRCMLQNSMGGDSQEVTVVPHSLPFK
Method: (§1) The R4 framework shuffled human and mouse PDGFRβ enriched VH domain pool selected in Example 2 was cloned into E. coli expression vectors, produced and purified. The binding kinetics of the VH domains to human and mouse PDFGR was determined using surface plasmon resonance on a Biacore T100. Briefly, human and mouse PDGFR-hIgG1-Fc chimeric fusion protein were separately immobilized using a Series CM5 sensorchip (CM5) coupled to anti-hIgG1 Fc monoclonal antibody. For each cycle, the PDGFR fusion protein was first captured, followed by the injection of VH for 115 seconds at a flow rate of 100 uL/min (association). Immediately following the association phase is a dissociation phase of 600 seconds. The surface was regenerated at each cycle with a single injection of 3M MgCl2 (10 uL/min, 60 seconds). Multiple concentrations of VH domain were injected (0.55 nM-40 nM) and the resulting sensorgram were analyzed with T100 Evaluation software. The binding kinetics was determined using 1:1 binding curve fitting.

[2] = biological target: T2, human PDGFR-hIgG1-Fc chimeric fusion protein (human, UniProt P09619 33-530); test: SPR (Biacore T100), PDGFR-Fc captured by anti-hIgG1 Fc, VH injected, 1:1 fit
T2 construct: For the IgG assay it was captured by an anti-6His antibody, which points to a His tag; also called recombinant human PDGFR-hIgG1-Fc chimeric fusion protein (R&D, #385-PR-100/CF); human PDGFRβ; not shown: human IgG1 Fc
T2 sequence (P09619 33-530 limits assumed, change not shown): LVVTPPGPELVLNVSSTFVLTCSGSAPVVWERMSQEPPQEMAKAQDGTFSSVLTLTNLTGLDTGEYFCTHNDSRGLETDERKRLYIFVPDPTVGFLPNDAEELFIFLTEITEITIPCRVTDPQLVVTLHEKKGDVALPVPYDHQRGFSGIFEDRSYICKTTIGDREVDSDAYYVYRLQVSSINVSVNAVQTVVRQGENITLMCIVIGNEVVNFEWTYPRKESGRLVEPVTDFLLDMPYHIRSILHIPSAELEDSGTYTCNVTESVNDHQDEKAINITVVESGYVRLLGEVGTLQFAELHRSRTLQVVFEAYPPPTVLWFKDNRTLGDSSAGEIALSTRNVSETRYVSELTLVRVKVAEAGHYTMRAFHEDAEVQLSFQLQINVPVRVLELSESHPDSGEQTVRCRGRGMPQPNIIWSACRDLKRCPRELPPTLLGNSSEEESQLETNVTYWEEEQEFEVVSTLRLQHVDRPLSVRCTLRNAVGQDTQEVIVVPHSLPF
Method: as §1

[3] = biological target: T2, human PDGFR-hIgG1-Fc chimeric fusion …; test: SPR competition (Biacore T100): captured PDGFR-Fc, VH 0.46-60 nM, then 10 nM PDGFBB
Method: Briefly, human PDGFR-hIgG1-Fc chimeric fusion protein was immobilized using a Series CM5 sensorchip coupled with anti-hIgG1 Fc monoclonal antibody. […] For each successive cycle, the PDGFR fusion protein was first captured then VH domain was then injected for 120 seconds. […] The surface was regenerated at each cycle with a single injection of 3M MgCl2 (10 uL/min, 60 seconds).

[4] = biological target: T2, human PDGFR-hIgG1-Fc chimeric fusion …; test: SPR (Biacore T100), human PDGFR-hIgG1-Fc captured by anti-hIgG1 Fc, 1:1 fit
Method: as §1

human PDGFRβ [5] = biological target: T3, human PDGFRβ (human, UniProt P09619 33-530, limits assumed); test: solution equilibrium binding: 35S-Met labelled in vitro translated protein, human PDGFRβ titrated (0 to 20 nM), capture on protein A beads, scintillation counts
T3 construct: also called hPDGFRβ; recombinant human PDGFRβ
T3 sequence (P09619 33-530 limits assumed): as the sequence (P09619 33-530 limits assumed, change not shown) above
Method: The affinity of several scFvs was determined by solution based equilibrium binding assay. Specifically, 120 pmol of scFv RNA was translated into free protein with ³⁵S Met incorporated. The translated reaction mixture was 3-fold diluted in binding buffer containing 1×PBS with 0.025% triton, 1 mg/mL BSA and 0.1 mg/mL sssDNA. […] The diluted scFv mixture was incubated with hPDGFRβ in final volume of 100 ul on Kingfisher plates (Thermofisher Scientific, 97002084). Following incubation, 25 ul of protein A magnetic beads (Invitrogen) were used to capture the PDGFRβ from solution. The captured PDGFRβ was washed and eluted in kingfisher Reader (Thermofisher Scientific). The amount of scFv (labeled with ³⁵S Met) bound to the magnetic bead-immobilized hPDGFRβ was counted using a scintillation counter and the Kd was calculated with Graph Pad Prism 5.

[6] = biological target: T2, human PDGFR-hIgG1-Fc chimeric fusion …; test: SPR (Biacore T100), PDGFR-Fc captured by anti-hIgG1 Fc, 1:1 model
Method: (§2) IgG1 to human PDFGR were determined using surface plasmon resonance on a Biacore T100. Briefly, recombinant human PDGFR-hIgG1-Fc chimeric fusion protein (R&D, #385-PR-100/CF) was immobilized on a Series CM5 sensorchip coupled with anti-hIgG1 Fc monoclonal antibody (for the VH and ScFv assays) or anti-6His antibody (for the IgG assay). […] The data was analyzed using the Biacore T100 analysis software using a 1:1 model. Mass transport was checked and avoided to allow accurate measurements. All data was double referenced according to Biacore standard protocol.

human PDGFRβ [7] = biological target: T3, human PDGFRβ; test: ELISA: plate coated with 2 ug/mL human PDGFRβ or human IgG, crude scFv lysate, anti-flag-HRP, OD450
Method: (§3) A PDGFRβ binding ELISA assay was performed to assess the binding of the scFv to immobilized PDGFRβ and to determine the EC50. Specifically, 2 ug/mL of human PDGFRβ and human Fc or IgG in PBS was immobilized on Maxisorp plates at 4° C. overnight. The plate was then washed and blocked with superblock. In vitro translated crude scFv lysate was diluted 1:3 in 1×PBST. 100 ul of the diluted scFv lysate was loaded into each well of Maxisorp plates and incubated for 1 hour at room temperature. scFv that bound to immobilized PDGFRβ was detected by anti-flag antibody-HRP at 1:5000 dilution and a TMB substrate. The plate was read on a Molecular Device plate reader with end point assay at OD 450 nm.

[8] = biological target: T2, human PDGFR-hIgG1-Fc chimeric fusion …; test: SPR (Biacore T100), PDGFR-Fc captured by anti-6His antibody, 1:1 model
Method: as §2

[9] = biological target: T2, human PDGFR-hIgG1-Fc chimeric fusion …; test: SPR (Biacore T100), human PDGFR-hIgG1-Fc captured by anti-hIgG1 Fc, 1:1 fit; the text prints it rounded as 93 pM
Method: as §1

[10] = biological target: T2, human PDGFR-hIgG1-Fc chimeric fusion …; test: SPR (Biacore T100), PDGFR-hIgG1-Fc captured by anti-hIgG1 Fc, VH injected; series 0 to 120 in the legend box, unit inferred
mouse PDGFRβ = biological target: T4, mouse PDGFRβ (mouse, UniProt P05622 32-530, limits assumed); test: 35S-Met labelled in vitro translated VH, binding to target
T4 sequence (looked up): T1 sequence (looked up)

human PDGFRβ [11] = biological target: T3, human PDGFRβ; test: solution equilibrium binding: 35S-Met labelled in vitro translated protein, human PDGFRβ titrated, capture on protein A beads, scintillation counts
Method: The affinity of several scFvs was determined by solution based equilibrium binding assay. Specifically, 120 pmol of scFv RNA was translated into free protein with ³⁵S Met incorporated. The translated reaction mixture was 3-fold diluted in binding buffer containing 1×PBS with 0.025% triton, 1 mg/mL BSA and 0.1 mg/mL sssDNA. Human PDGFRβ was diluted in the same binding buffer to final concentrations from 100 nM to 0 nM. The diluted scFv mixture was incubated with hPDGFRβ in final volume of 100 ul on Kingfisher plates (Thermofisher Scientific, 97002084). Following incubation, 25 ul of protein A magnetic beads (Invitrogen) were used to capture the PDGFRβ from solution. The captured PDGFRβ was washed and eluted in kingfisher Reader (Thermofisher Scientific). The amount of scFv (labeled with ³⁵S Met) bound to the magnetic bead-immobilized hPDGFRβ was counted using a scintillation counter and the Kd was calculated with Graph Pad Prism 5.

human PDGFRβ [12] = biological target: T3, human PDGFRβ; test: ELISA: plate coated with 2 ug/mL human PDGFRβ or human Fc, in vitro translated crude lysate diluted 1:3, anti-flag-HRP, OD450
Method: as §3

B1: XB2202 VH domain (other)
VH: QVQLVQSGAEVKKPGSSVRVSCKASGGTFSRHAISWVRQAPGQGLEWIGGILPILKTPNYAQRFQGRVTINADESTSTVYMEMSSLRSEDTAVYYCATHGGDRSYWGQGTLVTVSS
notes: Isolated (unpaired) human VH domain, framework-shuffled derivative of XB1511; produced in E. coli for SPR
Question: For B1, which Kd [1] is on record?
Answer: 0.925 nM

Question: And the koff [1]?
Answer: 0.00289 s⁻¹

Question: And the kon [1]?
Answer: 3.13e+06 M⁻¹ s⁻¹

Question: What about the Kd [2] of the same binder?
Answer: 0.249 nM

Question: And the koff [2]?
Answer: 0.00186 s⁻¹

Question: And the IC50 [3]?
Answer: < 5 nM

Question: What about the Kd [4] of the same binder?
Answer: 0.243 nM

Question: And the koff [4]?
Answer: 0.00175 s⁻¹

Question: And the kon [4]?
Answer: 7.19e+06 M⁻¹ s⁻¹

Question: What about the Kd (human PDGFRβ [5]) of the same binder?
Answer: 0.234 nM

Question: What about the Kd [6] of the same binder?
Answer: 0.227 nM

Question: What about the koff [6] of the same binder?
Answer: 0.00295 s⁻¹

Question: What about the kon [6] of the same binder?
Answer: 1.3e+07 M⁻¹ s⁻¹

B2: A5 (scFv, V domains shown)
VH: B1 VH
VL: SYELTQPPSASASLGASVTLTCTVSSGYRSYEVDWFQQRPGKGPRFVMRVGTGGIVGSRGDGIPDRFSVWGSGLNRYLTIEDIQEEDESDYYCGADHGSGSNLVYVFGTGTKVTVL
notes: also called XB2202/A5 scFv
Question: Does B2 bind (human PDGFRβ [7])?
Answer: no binding

B3: C2 (scFv, V domains shown)
VH: B1 VH
VL: DIQMTQSPSSLSASVGDRVAIACRPSQDIGTDLGWYQQKPGKAPKLLIFDSSTLQSGVPSRFSGSLSGTDFILTITNLQPEDFATYYCLQDYSFPYTFGQGTKLQIKR
notes: also called scFv XB2202-C2; XB2202/C2 scFv
Question: With B3 as the binder, how does the Kd (human PDGFRβ [5]) read?
Answer: 0.018 nM

B4: XB2202/A4 IgG1 (antibody)
heavy: not shown
light: DVVMTQSPSSLSASVGDRVTITCQASQDISNWLNWYQQKPGKAPKLLIYEASNLETGVPSRFSGSGSGTDFTFTISSLQPEDIATYYCQQYNNVLRTFGQGTKVEIKRTVAAPSVFIFPPSDEQLKSGTKVEIKRTVAAPSVFIFPPSDEQLKSGTASVVCLLNNFYPREAKVQWKVDNALQSGNSQESVTEQDSKDSTYSLSSTLTLSKADYEKHKVYACEVTHQGLSSPVTKSFNRGEC
notes: Full-length heterotetrameric IgG1 expressed in 293T cells; also called XB2202/A4 IgG1 antibody
Question: Which results are given for B4?
Answer: Kd [8]: 1.59 nM; koff [8]: 0.00156 s⁻¹; kon [8]: 980000 M⁻¹ s⁻¹

B5: XB2708 VH domain (other)
VH: QVQLVQSGGGVVQPGGSLRLSCAASGFTSRSYGMHWVRQAPGKGLEWVAFILFDGNNKYYADSVKGRFTISSDNSKNTLYLQMNSLRAEDTAVYYCATHGGDRSYWGQGTLVTVSS
notes: as for B1
Question: For B5, which Kd [1] is on record?
Answer: 1.08 nM

Question: And the koff [1]?
Answer: 0.00692 s⁻¹

Question: What about the kon [1] of the same binder?
Answer: 6.41e+06 M⁻¹ s⁻¹

Question: And the Kd [2]?
Answer: 0.093 nM

Question: What about the koff [2] of the same binder?
Answer: 0.000927 s⁻¹

Question: And the kon [4]?
Answer: 9.94e+06 M⁻¹ s⁻¹

Question: What about the Kd [9] of the same binder?
Answer: 0.0933 nM

B6: XB1511 VH domain (other)
VH: QVQLVQSGAEVKKPGSSVKVSCKASGGTFSSYAISWVRQAPGQGLEWMGGIIPIFGTANYAQKFQGRVTITADESTSTAYMELSSLRSEDTAVYYCAIHGGDRSYWGQGTLVTVSS
notes: Isolated (unpaired) human VH domain; also called clone A4; A4 XB1511
Question: B6 was tested. Which Kd [10] did it give?
Answer: 14.7 nM

Question: Does B6 bind (mouse PDGFRβ)?
Answer: no binding (tested: 100 nM)

Question: And the Kd (human PDGFRβ [11])?
Answer: 31.9 nM

B7: C7 scFv (scFv, V domains shown)
VH: B6 VH
VL: DIVMTQTPLSLSVTPGQPASISCKSSQSLLHSDGKTHLFWYLQRPGQSPQLLIYEVSGRFSGVSERFSGSGSGTDFTLKISRVEAEDVGVYYCMQGLHIPHTFGQGTKVEIK
notes: VL of the second round pool paired with XB1511 VH
Question: Does B7 bind (human PDGFRβ [12])?
Answer: binds
